Residue numbers refer to the chain shown, from its start. In names and notes the source's numbering stands. Entries after “also recorded” stand apart in the source; their conditions may differ.
B1: RiSxph: Ranitomeya imitator (Mimic poison frog) saxiphilin, SEQ ID NO: 6 (protein)
chain: MRRSSYAASQEMRMTLRVLLCLCLWALSSAAPNTRNVRWCVTSDTEEQKCNDLVTSCHVDEILLICVKKSSTEDCVRAISNGEADAISLDSKDVYKASLDPFNLKPIMTEAYSESEHTPCMRHRQSVLGGKIMKIGAFVPKCDEKGNYVPKQCHGSTGYCWCLNENGEEIEGTRTPPGNPGLTCENKANKPPCLKERQKLLSAKPSPAVFVPECDEKGNYRPQQSHVYSWCVDEYGEEVFGSRSFPGKPPKPCEASGETPCIKERNKVLSAAEPLLGAFVPDCDEKGYFSPLQSHGSTGYSWCVTKNGDEIKGTRTGPGQSPPTCEVPAPVTLHYAVAVVKKSSSFHLDQLKGKRSCHSAVGEAAGWVAPLNVLLKKKLLLWEEPEPKTIEKVASEIFSASCAPGAQEANLCEQCAGQEDKCTRGPGEPYYGDEGAFRCLREDKGDVAFVEDTALTGQYSDNFELLCPDNTRRPLSQYKICNFGRIPRHAVVTRSSGDKMKDITEYLLQAQKKECKLFSSTHGKDLLFEDTTSALIALPSAMDTFLFLGPDLFNGMKTLNGARPPQVNQQIRWCPQSKNEKKKCDDWSSVSGGAIKCTEPSSGLECIKMILKGEAEAVNLDIEHSYIALKCGLLPSVDEYRNKDDLIPCQIPGSEYSEFGSYRIVALVKKTDKDLTWNNLQGKKSCHTRAGDMIGWNIPVYLISKKTKNCDLGSYFSQSCAPGSPIDSNLCKLCIGDPQNPQANTKCSISDKEAYYGHEGAIRCLVEKGDVAFVPHTAIFENTDGKNPALWAKDLKSTDFELLCPDGSRAPVNDYKKCKLSGIANQIAITRPESVKDVVRIIQNQQSLYGRTGSQKDIFQMFSSSYGQNLLFSDRTQCLVEFDRMLDRDIMDDYFGKPFHKHLLRDNDCLPKSALASACSFHH
modifications: Ranitomeya imitator
B2: MaSxph: Mantella aurantiaca (Golden mantella) saxiphilin, SEQ ID NO: 3 (protein, listed as Mantella aurantiaca)
chain: MALTFQTALYFTIIGLSFVTSSARDVRWCVISDLEQKKCNDLVGSCKVSGITLVCVHRSSTENCMTAIRDEQADAMFLDSGDVYKASMSPYNLKPIIAESYSSHKECLKKRQEALGGANVLGQFVPQCDEKGSYQPQQCYGSTGHCWCVNAIGEEIVGTKTQPGQTQATCERHDQTKCLKDRQKALAKKMIGGFVPQCDEKGNFKPRQCHGSTGYCWCTNANGEKIAATNTPPQQSPPTCERHDLDSCHYAVAVVKKSSIFQFNQLKGKRSCHSGVSKTDGWKAPVSVLVDKNLLSWDRAAKESIEKAVSKFFSDSCIPGATETNLCNQCMGEGGKKCMSSHDEPYYGDHGAFRCLKEDKGDVAFLKNTVLSDTHSEDYELLCPDNTRKPLNKYKECNLGKVPADAVVTRKSGDKIKDINDFLLEAQKKHCQLFSSAHGKDLMFDDSTTQLSLLPPEVDVFFFLGVQWLNTMKTLTADVKPPSKNKVRWCTVNNLEKMKCDDWSAVSGGAIECTEASSPEHCIKQIVKGEADAVTLDVQYMYEALKCGLLPAVEEYHNKDDFGPCKTPGSEIKDFGAKRAVALVKKSNKDINWHNLKGKKSCHTGVGDQAGWIIPVGLISRQIDNCNIDSFFSESCAPGSDTTSNFCKLCIGDPSNPMANTKCSLSDKEAYHGNEGAIRCLVEKGDVAFVHHTAVFENTDGKNPAEWAANLKSEDFEILCLDGSRAPVSNYMTCRLSGVPPRAIVTREESVSDVVRILINQQSLFGRNGFEKDMFQMFSSNKGQNLLFNDGTQCLIEFDRQPRGIMEDYFGKPYYNAVYNTSKCVLPSELTSACTFKHC
B3: E540Q: RcSxph STX binding pocket mutant E540Q (protein)
chain: MAPTFQTALFFTIISLSFAAPNAKQVRWCAISDLEQKKCNDLVGSCNVPDITLVCVLRSSTEDCMTAIKDGQADAMFLDSGEVYEASKDPYNLKPIIAEPYSSNRDLQKCLKERQQALAKKMIGHYIPQCDEKGNYQPQQCHGSTGHCWCVNAMGEKISGTNTPPGQTRATCERHELPKCLKERQVALGGDEKVLGRFVPQCDEKGNYEPQQFHGSTGYSWCVNAIGEEIAGTKTPPGKIPATCQKHDLVTTCHYAVAMVKKSSAFQFNQLKGKRSCHSGVSKTDGWKALVTVLVEKKLLSWDGPAKESIQRAMSKFFSVSCIPGATQTNLCKQCKGEEGKNCKNSHDEPYYGNYGAFRCLKEDMGDVAFLRSTALSDEHSEVYELLCPDNTRKPLNKYKECNLGTVPAGTVVTRKISDKTEDINNFLMEAQKRQCKLFSSAHGKDLMFDDSTLQLALLSSEVDAFLYLGVKLFHAMKALTGDAHLPSKNKVRWCTINKLEKMKCDDWSAVSGGAIACTEASCPKGCVKQILKGEADAVKLEVQYMYEALMCGLLPAVQEYHNKDDFGPCKTPGSPYTDFGTLRAVALVKKSNKDINWNNIKGKKSCHTGVGDIAGWVIPVSLIRRQNDNSDIDSFFGESCAPGSDTKSNLCKLCIGDPKNSAANTKCSLSDKEAYYGNQGAFRCLVEKGDVAFVPHTVVFENTDGKNPAVWAKNLKSEDFELLCLDGSRAPVSNYKSCKLSGIPPPAIVTREESISDVVRIVANQQSLYGRKGFEKDMFQLFSSNKGNNLLFNDNTQCLITFDRQPKDIMEDYFGKPYYTTVYGASRSAMSSELISACTIKHC
B4: F784C: RcSxph STX binding pocket mutant F784C (protein)
chain: B3 chain with Q559E, F803C
B5: D785A: RcSxph STX binding pocket mutant D785A (protein)
chain: B3 chain with Q559E, D804A
B6: D794N: RcSxph STX binding pocket mutant D794N (protein)
chain: B3 chain with Q559E, D813N
B7: I782F: RcSxph STX binding pocket mutant I782F (protein)
chain: B3 chain with Q559E, I801F
B8: F784A: RcSxph STX binding pocket mutant F784A (protein)
chain: B3 chain with Q559E, F803A
B9: Y558F: RcSxph STX binding pocket mutant Y558F (protein)
chain: B3 chain with Q559E, Y577F
B10: Y795A: RcSxph STX binding pocket mutant Y795A (protein)
chain: B3 chain with Q559E, Y814A
B11: K789A: RcSxph STX binding pocket mutant K789A (protein)
chain: B3 chain with Q559E, K808A
B12: T563A: RcSxph STX binding pocket mutant T563A (protein)
chain: B3 chain with Q559E, T582A
B13: Q787E: RcSxph STX binding pocket mutant Q787E (protein)
chain: B3 chain with Q559E, Q806E
B14: Q787A: RcSxph STX binding pocket mutant Q787A (protein)
chain: B3 chain with Q559E, Q806A
B15: F784S: RcSxph STX binding pocket mutant F784S (protein)
chain: B3 chain with Q559E, F803S
B16: F784L: RcSxph STX binding pocket mutant F784L (protein)
chain: B3 chain with Q559E, F803L
B17: F784Y: RcSxph STX binding pocket mutant F784Y (protein)
chain: B3 chain with Q559E, F803Y
B18: I782A/Y558A: RcSxph STX binding pocket double mutant I782A/Y558A (protein)
chain: B3 chain with Q559E, Y577A, I801A

Format: binding
Conditions: FP

Row | Molecule | STX/F-STX affinity compared with RcSxph
1 | B1 | higher affinity for STX than RcSxph; also recorded: binds STX more strongly than RcSxph
2 | B2 | enhanced affinity

Same assay, conditions: FP, 1 nM F-STX, 25° C.; errors S.D.

Row | Molecule | Kd
3 | B3 | 10.6 ± 1.32 µM
4 | B4 | 1.51 ± 0.346 µM
5 | B5 | 0.0195 ± 0.0025 µM
6 | B6 | 3.23 ± 0.397 µM
7 | B7 | 0.0161 ± 0.0041 µM
8 | B8 | 0.725 ± 0.109 µM
9 | B9 | 0.0063 ± 0.0023 µM
10 | B10 | 0.0084 ± 0.0021 µM
11 | B11 | 0.0051 ± 0.0017 µM
12 | B12 | 0.0053 ± 0.0005 µM
13 | B13 | 0.0064 ± 0.0016 µM
14 | B14 | 0.0113 ± 0.0011 µM
15 | B15 | 3.24 ± 0.508 µM
16 | B16 | 0.048 ± 0.0068 µM
17 | B17 | 0.0138 ± 0.001 µM
18 | B18 | 0.0012 ± 0.0002 µM
19 | B1 | 0.0008 ± 0.0003 µM
20 | B2 | 0.0004 ± 0.0001 µM

Same assay, conditions: ΔΔG = RT ln(Kd mutant or XSxph/Kd RcSxph); T = 298K; FP with F-STX

Row | Molecule | ΔΔG
21 | B3 | 18 kJ/mol
22 | B4 | 13.2 kJ/mol
23 | B5 | 2.38 kJ/mol
24 | B6 | 15.1 kJ/mol
25 | B7 | 1.92 kJ/mol
26 | B8 | 11.3 kJ/mol
27 | B9 | -0.418 kJ/mol
28 | B10 | 0.33 kJ/mol
29 | B11 | -0.92 kJ/mol
30 | B12 | -0.837 kJ/mol
31 | B13 | -0.38 kJ/mol
32 | B14 | 1.05 kJ/mol
33 | B15 | 15.1 kJ/mol
34 | B16 | 4.64 kJ/mol
35 | B17 | 1.55 kJ/mol
36 | B18 | -4.48 kJ/mol
37 | B1 | -5.52 kJ/mol
38 | B2 | -7.24 kJ/mol

Reference: patent US20260034194A1, “PHARMACEUTICAL COMPOSITIONS AND METHODS OF TREATING PSP” (priority 2022, published 2026)
